Target: His6-human talin (human) (UniProt Q9Y490)
Test: pull-down

B1: His6-vinculin head (Vh), vinculin D1 domain (amino acid residues 1–258) (domain or fragment)
chain: MPVFHTRTIESILEPVAQQISHLVIMHEEGEVDGKAIPDLTAPVSAVQAAVSNLVRVGKETVQTTEDQILKRDMPPAFIKVENACTKLVRAAQMLQADPYSVPARDYLIDGSRGILSGTSDLLLTFDEAEVRKIIRVCKGILEYLTVAEVVETMEDLVTYTKNLGPGMTKMAKMIDERQQELTHQEHRVMLVNSMNTVKELLPVLISAMKIFVTTKNTKSQGIEEALKNRNFTVEKMSAEINEIIRVLQLTSWDEDAW
**Q.** With B1 as the binder, how does the fold lower IC50 than that of the RIAM peptide read?
**A.** Its fold lower IC50 than that of the RIAM peptide is 100 fold.
